Experimental findings from publication doi:10.1101/781922 (bioRxiv, 2019) are described below.

This assay concerns the target T1, Arabidopsis TIR1, coexpressed with AtASK1 (His10-eGFP-FLAG-(TEV)-AtTIR1 and His10-(TEV)-AtASK1) (Arabidopsis, UniProt Q570C0;Q39255).
T1 sequence 1: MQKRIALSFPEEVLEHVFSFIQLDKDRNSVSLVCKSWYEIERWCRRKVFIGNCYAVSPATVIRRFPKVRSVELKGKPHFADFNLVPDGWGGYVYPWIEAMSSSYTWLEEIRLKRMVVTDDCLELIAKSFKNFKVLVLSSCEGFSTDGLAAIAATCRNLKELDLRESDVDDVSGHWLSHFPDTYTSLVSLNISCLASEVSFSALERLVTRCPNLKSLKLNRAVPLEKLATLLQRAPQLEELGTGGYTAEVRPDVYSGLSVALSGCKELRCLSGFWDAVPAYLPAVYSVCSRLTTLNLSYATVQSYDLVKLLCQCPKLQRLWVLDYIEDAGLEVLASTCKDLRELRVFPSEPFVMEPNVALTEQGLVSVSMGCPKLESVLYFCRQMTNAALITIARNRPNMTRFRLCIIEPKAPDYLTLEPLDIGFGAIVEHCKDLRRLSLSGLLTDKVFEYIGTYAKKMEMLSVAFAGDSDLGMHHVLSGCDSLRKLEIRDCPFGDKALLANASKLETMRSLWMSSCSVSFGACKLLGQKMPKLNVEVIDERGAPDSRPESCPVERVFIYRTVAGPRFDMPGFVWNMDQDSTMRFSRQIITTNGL
T1 sequence 2: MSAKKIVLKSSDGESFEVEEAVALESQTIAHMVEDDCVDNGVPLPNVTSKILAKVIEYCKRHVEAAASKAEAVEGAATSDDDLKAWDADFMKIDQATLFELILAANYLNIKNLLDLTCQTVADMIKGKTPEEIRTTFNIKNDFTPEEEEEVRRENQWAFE
As to the kind of experiment: NMR titration.

B1: AXR3 DI/DII (N-terminal half, domains I and II, of the Aux/IAA protein AXR3/IAA17) (domain or fragment)
chain: MMGSVELNLRETELCLGLPGGDTVAPVTGNKRGFSETVDLKLNLNNEPANKEGSTTHDVVTFDSKEKSACPKDPAKPPAKAQVVGWPPVRSYRKNVMVSCQ
Consider B1, for which the binding result is on record as “binds”.
